Measurements: US20040091907A1 (SUGEN, published 2004)

Assays:
[1] = molecular target: T1, GFP-GEF-H1 (human, UniProt Q92974 93-986); assay: biotinylated peptide on streptavidin beads, pull-down from 293T lysate, GEF-H1 immunoblot
T1 construct: The legend says GFP-GEF-H1, the text GEF-H1S; also called GEF-H1S; EGFP-GEF-H1S; not shown: EGFP from vector pEGFP-C1 (Clontech)
T1 sequence: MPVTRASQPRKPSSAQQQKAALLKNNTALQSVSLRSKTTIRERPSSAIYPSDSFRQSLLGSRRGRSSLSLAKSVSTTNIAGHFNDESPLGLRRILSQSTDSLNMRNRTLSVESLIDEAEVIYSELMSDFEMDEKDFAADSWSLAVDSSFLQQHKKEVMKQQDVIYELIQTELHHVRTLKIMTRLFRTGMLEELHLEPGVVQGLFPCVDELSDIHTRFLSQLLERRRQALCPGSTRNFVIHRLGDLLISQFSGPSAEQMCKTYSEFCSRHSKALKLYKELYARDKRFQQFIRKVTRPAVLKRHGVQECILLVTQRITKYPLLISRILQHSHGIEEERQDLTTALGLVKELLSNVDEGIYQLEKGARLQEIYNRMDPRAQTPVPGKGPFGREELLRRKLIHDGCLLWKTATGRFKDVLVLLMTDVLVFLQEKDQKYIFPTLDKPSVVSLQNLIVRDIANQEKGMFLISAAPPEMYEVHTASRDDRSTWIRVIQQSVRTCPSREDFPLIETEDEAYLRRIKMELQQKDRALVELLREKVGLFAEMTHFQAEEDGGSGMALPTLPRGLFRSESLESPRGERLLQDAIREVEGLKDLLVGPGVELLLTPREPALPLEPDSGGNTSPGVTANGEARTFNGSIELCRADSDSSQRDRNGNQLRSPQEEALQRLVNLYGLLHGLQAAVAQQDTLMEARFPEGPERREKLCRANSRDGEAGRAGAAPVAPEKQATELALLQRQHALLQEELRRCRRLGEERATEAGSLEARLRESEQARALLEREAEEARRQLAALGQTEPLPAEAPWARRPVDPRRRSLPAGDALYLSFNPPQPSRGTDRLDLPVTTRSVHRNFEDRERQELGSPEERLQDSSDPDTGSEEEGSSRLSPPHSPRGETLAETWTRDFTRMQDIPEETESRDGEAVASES
Protocol: FIG. 1: Direct binding of GEF-H1 to PAK4. […] An equivalent amount of beads and excess lysates (500 ug) were used. Eluates of beads and total lysates were analysed by SDS-PAGE and immunoblotted with myc or GEF-H1 antiserum; (c) represents a PAK4 gene schematic outlining the regions of PAK4 used to identify the GEF-H1 interaction domain (GID). d, alignment of the GID defined by the minimal binding region of PAK4 with PAK5 and PAK6.
Biotinylated peptides derived from the N-terminal region of PAK4 sequence were used to further map the GEF-H1 binding site. […] Based on the homology within the GID of PAK4 it is possible that PAK5 and PAK6 also interact with GEF-H1 or related proteins.

[2] = molecular target: T2, Glutathione-s-transferase (GST) fused PAK4 (residues 291-591) (human, UniProt O96013 291-591); assay: phage display screen, GST-PAK4 (291-591) on glutathione beads, MCF7 cDNA library
T2 construct: Bait of the phage display screen; the paragraphs that tell the kinase results say only PAK4; also called PAK4 kinase; not shown: glutathione-S-transferase (GST), protein product of the SJ26 gene, fusion partner from pGEX-4T
Text: The phage display hits isolated in the screen corresponded to in-frame fusions derived from several distinct genes. One fragment was derived from the Maguin-2-like gene. Two other hits were derived from the GEF-H1S splice variant of GEF-H1.
This expression vector allowed production and expression of a gene appropriately inserted, as a fusion protein where the fusion partner is the protein product of the SJ26 gene glutathione-s-transferase (GST). The fusion partner GST allows for affinity immobilization on glutathione sepharose 4B matrix (Amersham Biosciences Cat # 17-0756-01) also known as glutathione beads. The PAK4 polypeptide immobilized to these beads was incubated with a lysate containing phage particles expressing a library of peptides derived from MCF7 (breast carcinoma tissue culture cells available from ATCC, USA) cDNA. See, Zozulya et al., Nat. Biotechnol., 17(12): p. 1193-8, 1999. Upon sequencing many of the candidates obtained in this screen, the GEF-H1S polypeptide was discovered in the clone designated 13-8. Sequencing was performed on a ABI prizm machine using standard methods provided by the manufacturer (Applied Biosystems, USA).

[3] = molecular target: T3, amino-terminal regulatory domain of PAK4 alone (amino acids 1-309) (human, UniProt O96013 1-309); assay: GST pull-down on glutathione beads from 293T lysate, myc immunoblot
T3 construct: Over-expressed in 293T cells, used as cell lysate
T3 sequence (looked up): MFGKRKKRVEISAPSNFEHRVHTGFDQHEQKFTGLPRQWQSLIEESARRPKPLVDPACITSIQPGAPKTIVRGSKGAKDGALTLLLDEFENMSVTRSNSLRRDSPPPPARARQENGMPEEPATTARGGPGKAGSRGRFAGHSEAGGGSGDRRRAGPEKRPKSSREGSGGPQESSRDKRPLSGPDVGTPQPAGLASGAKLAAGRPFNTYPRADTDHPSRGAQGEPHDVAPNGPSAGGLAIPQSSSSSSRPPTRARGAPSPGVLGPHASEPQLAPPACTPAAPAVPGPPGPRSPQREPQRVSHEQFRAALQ
Protocol: An equivalent amount of beads and excess lysates (500 ug) were used. Eluates of beads and total lysates were analysed by SDS-PAGE and immunoblotted with myc or GEF-H1 antiserum; (c) represents a PAK4 gene schematic outlining the regions of PAK4 used to identify the GEF-H1 interaction domain (GID). d, alignment of the GID defined by the minimal binding region of PAK4 with PAK5 and PAK6.
These fusion proteins were bound to glutathione beads and utilized in binding assays with 293T lysates expressing exogenous PAK4.
The GST immobilized GEF-H1S polypeptide was used to conduct immunoprecipitation from the 293T cell extracts. The resulting protein complexes on the beads were identified by separating on SDS-PAGE followed by Western blotting to identify proteins that are present. The Western blot technique (Renart et al., Methods Enzymol., 104:455-60, 1984) is universally used to identify proteins using specific immunoreagents like antibodies. […] PAK4 was not present after immunoprecipitation with immobilized fusion partner GST. This interaction was limited by the presence or absence of GEF-H1S.

B1: biotinylated PAK4 peptide, amino acids 291-355 (peptide, UniProt O96013 291-355, looked up)
peptide: SPQREPQRVSHEQFRAALQLVVDPGDPRSYLDNFIKIGEGSTGIVCIATVRSSGKLVAVKKMDLR
modifications: biotinylated (position not given)
notes: Linked to streptavidin beads
[1]
  binding result: no binding

B2: GEF-H1S polypeptide of phage display clone 13-8 (amino acids 763-921) (other)
chain: LRESEQARALLEREAEEARRQLAALGQTEPLPAEAPWARRPVDPRRRSLPAGDALYLSFNPPQPSRGTDRLDLPVTTRSVHRNFEDRERQELGSPEERLQDSSDPDTGSEEEGSSRLSPPHSPRGETLAETWTRDFTRMQDIPEETESRDGEAVASES
notes: Two hits came from GEF-H1S; only this one has stated limits; also called phage clone 13.8; GEF-H1 phage display hit; not shown: phage display fusion partner
[2]
  binding result: binds

B3: GST-GEF-H1S (aa763-921) (other)
chain: B2 chain
notes: not shown: glutathione-S-transferase (GST), protein product of the SJ26 gene, fusion partner from pGEX-4T
[3]
  binding result: no binding
